Data set [1] concerns the target amyloid β peptide (Aβ) of the TBS-soluble fraction of human Alzheimer's disease brain (human (endogenous in brain)). Description: SEC. For orientation: In gel filtration, larger molecules generally elute earlier.
Data set [2] is described as follows: SEC.
Data set [3] concerns the target amyloid β peptide (Aβ) of the TBS-soluble fraction of human Alzheimer's disease brain (human (endogenous in brain)). Description: SDS-PAGE and immunoblot.
A short description of data set [4]: split reporter. To be noted: split reporter (BiFC, NanoBiT).
The target of data set [5] is split-luciferase tagged Aβ. As to the kind of experiment: split reporter.
Data set [6] has as its target split-luciferase tagged Aβ. As to the kind of experiment: split reporter. This is another data set of the same source.
Data set [7] has as its target split-luciferase tagged Aβ. As to the kind of experiment: split reporter. This is another data set of the same source.
Data set [8] addresses split-luciferase tagged Aβ. As to the kind of experiment: SEC + split reporter.

One may read the stoichiometry N as the number of molecules, sites or subunits per partner or assembly.

Where “and” joins values, the source holds several entries; their conditions need not be identical. Equal values may be shown once. Read-outs that look alike come from different tables or passages of the source.

As for “amyloid β peptide (Aβ) of the TBS-soluble fraction of human Alzheimer's disease brain”, the stoichiometry N in data set [1] was 2 and 3; in data set [3], 2. The “percent of LMW Aβ eluting in the HMW Aβ fraction after incubation without apoE” value in data set [2] is 0.5 ± 0.7 without apoE.

Turning to split-luciferase tagged Aβ, in data set [4], the “luminescence (%) after incubation with SEC fraction 6 of AD brain” value is on record as 141.8% in AD fraction 6, the “luminescence (%) after incubation with SEC fraction 6 of control brain” value stood at 99.8% in control fraction 6, the “luminescence (%) after incubation with SEC fraction 7 of AD brain” value is 198.4% in AD fraction 7 and the “luminescence (%) after incubation with SEC fraction 7 of control brain” value stood at 163.2% in control fraction 7. In data set [4], the “luminescence (%) after incubation with SEC fraction 8 of AD brain” value is on record as 256.4% in AD fraction 8, the “luminescence (%) after incubation with SEC fraction 8 of control brain” value was 230.8% in control fraction 8, the “luminescence (%) after incubation with SEC fraction 9 of AD brain” value is listed as 207.6% in AD fraction 9 and the “luminescence (%) after incubation with SEC fraction 9 of control brain” value stood at 202.6% in control fraction 9.

In data set [5], split-luciferase tagged Aβ (peptide) returned a luminescence (%) after incubation with fraction 8 of APOEε3/ε3 AD brains of 168%, a luminescence (%) after incubation with fraction 8 of APOEε4/ε4 AD brains of 193%, a luminescence of cell lysate (%) with apoA-II co-expressed of 100% and a luminescence of cell lysate (%) with apoE2 co-expressed of 89.9%. In data set [5], this substance came in with a luminescence of cell lysate (%) with apoE3 co-expressed of 96.4%, a luminescence of cell lysate (%) with apoE4 co-expressed of 92.5%, a luminescence of conditioned medium (% of control) with apoA-I co-expressed of 132% and a luminescence of conditioned medium (% of control) with apoA-II co-expressed of 89.3%. Further, in data set [5], the luminescence of conditioned medium (% of control) with apoE3 co-expressed is 279%, the luminescence of conditioned medium (%) with apoA-II co-expressed stood at 101%, the luminescence of conditioned medium (%) with apoE3 co-expressed stood at 229% and the luminescence of conditioned medium (%) with apoE4 R61T co-expressed worked out at 228%. This substance showed a luminescence of conditioned medium (%) with apoE4 co-expressed in data set [5] of 261%. In addition, in data set [6], the luminescence of conditioned medium (% of control) with apoE3 NTF co-expressed stood at 114%, the luminescence of conditioned medium (% of control) with apoE3 co-expressed is 218% and the luminescence of conditioned medium (% of control) with apoE CTF co-expressed is 206%. In data set [7], the luminescence of conditioned medium (% of control) with apoA-II co-expressed stood at 91.7%, the luminescence of conditioned medium (% of control) with apoE3 NTF co-expressed was 113%, the luminescence of conditioned medium (% of control) with apoE3 co-expressed worked out at 274% and the luminescence of conditioned medium (% of control) with apoE 192-242 co-expressed turned out to be 142%. In data set [7], this substance gave a luminescence of conditioned medium (% of control) with apoE 192-272 co-expressed of 185%, a luminescence of conditioned medium (% of control) with apoE 231-299 co-expressed of 223%, a luminescence of conditioned medium (% of control) with apoE 243-299 co-expressed of 235% and a luminescence of conditioned medium (% of control) with apoE CTF co-expressed of 239%. For the same substance, the stoichiometry N in data set [8] was determined as 2.

These data come from paper PMC3493562.
